Measured values as given in patent publication US20240101668A1 (WUGEN, published 2024).
Numbering of substitutions follows the chain as printed.

B1: Polypeptide No. 142 (scFv, V domains shown)
VH: EVQLLESGGGLVQPGGSLRLSCAASGFTFSSYWMHWVRQAPGKGLEWVAVISYDGSDKYYADSVKGRFTISRDNSKNTLYLQMNSLRAEDTAVYYCARGLGGTTGTADFDYWGQGTLVTVSS
VL: not shown
notes: scFv
B2: Polypeptide No. 141 (scFv, V domains shown)
VH: QVQLVQSGAEVKKPGASVKVSCKASGGTFSSYAISWVRQAPGQGLEWMGVISPNGDTTVYAQKFQGRVTMTRDTSTSTVYMELSSLRSEDTAVYYCARDRGVAHSYYYGMDVWGQGTLVTVSS
VL: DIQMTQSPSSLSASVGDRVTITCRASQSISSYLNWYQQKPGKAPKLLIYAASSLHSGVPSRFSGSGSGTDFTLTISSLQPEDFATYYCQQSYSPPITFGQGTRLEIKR
notes: scFv
B3: Polypeptide No. 137 (scFv, V domains shown)
VH: QVQLVQSGAEVKKPGASVKVSCKASGYTFTDYYIHWVRQAPGQGLEWMGMVNPSGGSANYAQKFQGRVTMTRDTSTSTVYMELSSLRSEDTAVYYCAKDSAWQEPYYFDYWGQGTLVTVSS
VL: DIQMTQSPSSLSASVGDRVTITCRASQGISSYLAWYQQKPGKAPKLLIYDASNLDTGVPSRFSGSGSGTDFTLTISSLQPEDFATYYCQQSYSTPLTFGGGTKVEIKR
notes: scFv
B4: Polypeptide No. 139 (scFv, V domains shown)
VH: QVQLVQSGAEVKKPGASVKVSCKASGYTLSDHDINWVRQAPGQGLEWMGWMNPSTGNTGYAQKFQGRVTMTRDTSTSTVYMELSSLRSEDTAVYYCERDQLRFGAWFDPWGQGTLVTVSS
VL: B3 VL with S30R, S31N, D50A, N53S, D55Q, T56S, T94I
notes: scFv
B5: Polypeptide No. 140 (scFv, V domains shown)
VH: EVQLVESGGGLVKPGGSLRLSCAASGITVSSSWMHWVRQAPGKGLEWVSAIGTGGGTHYADSVKGRFTISRDDSKNTLYLQMNSLKTEDTAVYYCARDQGGQIDHWGQGTLVTVSS
VL: B3 VL with G28S, Y32W, N53T, D55Q, T56S, T94I
notes: scFv
B6: Polypeptide No. 138 (scFv, V domains shown)
VH: QVQLVQSGAEVKKPGASVKVSCKASGYTFSSYDMHWVRQAPGQGLEWMGVINPGGGYTNYAQKFQGRVTMTRDTSTSTVYMELSSLRSEDTAVYYCARDEGWELLLDYWGQGTLVTVSS
VL: EIVMTQSPATLSVSPGERATLSCRASQSVGSNLAWYQQKPGQAPRLLIYGASTRATGIPARFSGSGSGTEFTLTISSLQSEDFAVYYCQQSHSLPPTFGQGTRLEIKR
notes: scFv
B7: Polypeptide No. 143 (scFv, V domains shown)
VH: QVQLVQSGAEVKKPGASVKVSCKASGYTFTGYYMHWVRQAPGQGLEWMGWMNANSGNTGFAQKFQGRVTMTRDTSTSTVYMELSSLRSEDTAVYYCARDSSSWLSGGGWFDPWGQGTLVTVSS
VL: DIQMTQSPSSLSASVGDRVTITCRASQSIGTYLSWYQQKPGKAPKLLIYAASSLQSGVPSRFSGSGSGTDFTLTISSLQPEDFATYYCQQSYSSPITFGQGTKLEIKR
notes: scFv

target: T1, huCD33-G69-Fc recombinant protein (human, UniProt P20138 18-259); experiment: BLI;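 further: biolayer interferometry: scFvs captured from periplasmic extracts on anti-V5-loaded streptavidin biosensors, antigen association for 2 min, buffer dissociation for 5 min, 1:1 Langmuir fit giving off-rate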
T1 construct: extracellular domain; also called CD33 R69G
T1 sequence (P20138 18-259 R69G): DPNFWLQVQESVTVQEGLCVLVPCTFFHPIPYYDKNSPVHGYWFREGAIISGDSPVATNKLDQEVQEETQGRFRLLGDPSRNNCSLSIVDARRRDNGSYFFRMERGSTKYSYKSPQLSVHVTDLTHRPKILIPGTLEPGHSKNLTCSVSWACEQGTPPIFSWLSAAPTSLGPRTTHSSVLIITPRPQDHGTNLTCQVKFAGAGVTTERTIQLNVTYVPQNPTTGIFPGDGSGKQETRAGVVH

| binding result | Binder |
| --- | --- |
| binds | B1 |
| binds | B2 |
| binds | B3 |
| binds | B4 |
| binds | B5 |
| binds | B6 |
| binds | B7 |

target: T2, huCD33-R69 stably expressed on Jurkat cells (human, UniProt P20138 18-364); experiment: FACS on cells;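 further: fixed Jurkat lines probed with myc-tagged scFv periplasmic extracts, anti-myc PE flow cytometry, PE MFI fold binned − <2, + 2–10, ++ 10–30, +++ >30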
T2 construct: whole, on cells; >200,000 receptors per cell; also called CD33 WT; CD33^ARG69
T2 sequence (P20138 18-364): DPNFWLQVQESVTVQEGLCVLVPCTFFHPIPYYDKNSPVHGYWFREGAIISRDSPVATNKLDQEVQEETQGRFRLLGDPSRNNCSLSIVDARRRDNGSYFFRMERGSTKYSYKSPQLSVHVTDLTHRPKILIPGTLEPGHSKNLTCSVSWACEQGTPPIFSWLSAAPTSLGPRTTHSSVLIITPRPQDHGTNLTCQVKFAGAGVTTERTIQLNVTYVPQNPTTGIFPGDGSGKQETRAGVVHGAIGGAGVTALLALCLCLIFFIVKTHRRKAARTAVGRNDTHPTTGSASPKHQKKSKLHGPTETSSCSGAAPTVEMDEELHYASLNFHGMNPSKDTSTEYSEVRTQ
Method: (§1) Jurkat cells were engineered to stably express either the huCD33-R69 or huCD33-G69 variant at >200,000 receptors per cell. Parental, huCD33-R69, and huCD33-G69 Jurkat cell lines were stained with differing levels of CellTrace Violet Cell Proliferation Kit (ThermoFisher, cat. #C34557) to barcode each cell line. Barcoded Jurkat cell lines were fixed with paraformaldehyde and incubated with myc-labeled scFv periplasmic extracts and a secondary anti-myc PE-conjugated monoclonal antibody. Appropriate positive and negative controls were used. Stained cells were analyzed by flow cytometry (CytoFLEX, Beckman Coulter, Inc.) and binding was assessed by change in PE mean fluorescence intensity (MFI) of the barcoded cell populations.
(§2) Data is disclosed below in Table 16c, reporting FACS fold change over parental as (−), indicating <2 fold; (+), indicating 2-10 fold; (++), indicating 10-30 fold; and (+++), indicating >30 fold.

| FACS geometric mean fold change over Jurkat parental [fold] | Binder |
| --- | --- |
| 2 to 10 | B1 |
| 10 to 30 | B2 |
| > 30 | B3 |
| > 30 | B4 |
| 2 to 10 | B5 |
| 10 to 30 | B6 |
| 2 to 10 | B7 |

target: T3, huCD33-G69 stably expressed on Jurkat cells (human, UniProt P20138 18-364); experiment: FACS on cells;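 further: fixed Jurkat lines probed with myc-tagged scFv periplasmic extracts, anti-myc PE flow cytometry, PE MFI fold binned − <2, + 2–10, ++ 10–30, +++ >30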
T3 construct: whole, on cells; >200,000 receptors per cell; also called CD33 Mutant; CD33 R69G
T3 sequence (P20138 18-364 R69G): as the sequence (P20138 18-364) above, with R52G counted along it
Method: as §1, §2

| FACS geometric mean fold change over Jurkat parental [fold] | Binder |
| --- | --- |
| 2 to 10 | B1 |
| > 30 | B2 |
| > 30 | B3 |
| > 30 | B4 |
| 2 to 10 | B5 |
| 10 to 30 | B6 |
| 2 to 10 | B7 |
